This passage reports IC50 results from article PMC12269843 (2025).

The target of this assay is HLA-DRB1*04:05 protein (human). Nature of the assay: FP.

Where no end group is shown, it is not given here. [ ]: non-standard residue; d: D form. Cit = NC(=O)NCCC[C@H](N)C(=O)O

In turn, D[Cit]Y[Cit]LNYSLPTG [TNC1014,1016cit peptide] returned a half-maximal inhibitory concentration (IC50) of 4.81 µM.

Broadly, the IC50 is the concentration that gives 50% inhibition. Higher therefore signals weaker potency.
